Experimental findings from patent US20250171536A1 are described below.

The target of assay [1] is Human CD117 (c-kit), cell-surface expressed (human) (UniProt P10721). Description: cell-based or functional assay.
The target in assay [2] is Cyno CD117, soluble (cynoCD117 1-520) (cynomolgus monkey). Kind of assay: SPR Biacore 4000, captured antibody, soluble CD117 analyte, 1:1 fit. (Surface plasmon resonance follows binding to a sensor surface in real time, without labels.)
The target in assay [3] is Full length human CD117, soluble (HuCD117 1-524) (human) (UniProt P10721). Described as above.
The target of assay [4] is N-terminal domain of human CD117, soluble (HuCD117 1-308) (human) (UniProt P10721). The assay is described as above.
N-terminal domain of human CD117, soluble (HuCD117 1-308) (human), sequence (P10721 26-308): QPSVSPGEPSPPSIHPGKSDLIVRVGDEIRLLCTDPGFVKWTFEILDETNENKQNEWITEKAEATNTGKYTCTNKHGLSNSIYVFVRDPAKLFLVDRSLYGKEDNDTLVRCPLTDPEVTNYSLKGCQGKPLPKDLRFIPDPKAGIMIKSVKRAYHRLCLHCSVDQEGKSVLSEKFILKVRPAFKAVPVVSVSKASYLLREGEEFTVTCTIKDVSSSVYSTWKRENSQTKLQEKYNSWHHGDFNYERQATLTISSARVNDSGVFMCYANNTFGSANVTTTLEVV

Human CD117 (c-kit), cell-surface expressed (human), sequence (P10721 26-976 limits assumed): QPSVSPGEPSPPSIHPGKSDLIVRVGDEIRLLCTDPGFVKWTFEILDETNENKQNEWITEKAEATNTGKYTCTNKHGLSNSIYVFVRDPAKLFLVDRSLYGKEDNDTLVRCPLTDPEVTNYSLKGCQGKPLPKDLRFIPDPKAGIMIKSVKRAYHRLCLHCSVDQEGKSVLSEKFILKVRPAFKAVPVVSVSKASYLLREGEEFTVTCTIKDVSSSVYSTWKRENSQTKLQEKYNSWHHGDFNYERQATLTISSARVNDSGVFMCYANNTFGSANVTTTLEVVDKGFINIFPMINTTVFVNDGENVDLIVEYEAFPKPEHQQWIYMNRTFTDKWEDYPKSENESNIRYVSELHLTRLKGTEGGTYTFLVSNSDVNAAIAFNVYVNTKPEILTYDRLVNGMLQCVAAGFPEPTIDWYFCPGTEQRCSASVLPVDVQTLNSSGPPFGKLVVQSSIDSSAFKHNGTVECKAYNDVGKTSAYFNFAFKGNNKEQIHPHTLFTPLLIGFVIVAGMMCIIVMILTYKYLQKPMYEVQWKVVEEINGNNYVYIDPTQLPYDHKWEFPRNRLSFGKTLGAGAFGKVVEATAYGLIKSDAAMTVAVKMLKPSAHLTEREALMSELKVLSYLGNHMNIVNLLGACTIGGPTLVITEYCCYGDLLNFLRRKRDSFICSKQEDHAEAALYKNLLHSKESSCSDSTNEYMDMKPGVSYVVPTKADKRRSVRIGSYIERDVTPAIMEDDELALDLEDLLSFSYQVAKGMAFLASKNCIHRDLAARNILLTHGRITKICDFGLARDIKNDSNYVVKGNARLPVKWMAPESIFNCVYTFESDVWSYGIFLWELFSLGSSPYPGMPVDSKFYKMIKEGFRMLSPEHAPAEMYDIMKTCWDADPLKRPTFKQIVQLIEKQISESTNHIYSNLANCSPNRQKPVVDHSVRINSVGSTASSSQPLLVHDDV
Full length human CD117, soluble (HuCD117 1-524) (human), sequence (P10721 26-524): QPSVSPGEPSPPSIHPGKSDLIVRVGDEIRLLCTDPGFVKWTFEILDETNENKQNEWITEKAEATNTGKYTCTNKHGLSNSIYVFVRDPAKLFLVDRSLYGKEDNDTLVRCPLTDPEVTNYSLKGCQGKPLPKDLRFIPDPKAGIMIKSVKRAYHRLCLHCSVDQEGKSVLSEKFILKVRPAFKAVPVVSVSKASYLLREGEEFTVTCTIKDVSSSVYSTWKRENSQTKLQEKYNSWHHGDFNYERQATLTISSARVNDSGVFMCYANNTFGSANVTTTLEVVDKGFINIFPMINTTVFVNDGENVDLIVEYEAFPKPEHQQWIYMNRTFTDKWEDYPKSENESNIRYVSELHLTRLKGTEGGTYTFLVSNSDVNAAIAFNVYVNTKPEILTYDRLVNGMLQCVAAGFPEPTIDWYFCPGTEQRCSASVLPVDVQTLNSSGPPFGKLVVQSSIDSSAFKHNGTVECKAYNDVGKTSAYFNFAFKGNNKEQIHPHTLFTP
Cyno CD117, soluble (cynoCD117 1-520) (cynomolgus monkey), sequence (P10721 other isoform, or with tags, fused parts or gaps): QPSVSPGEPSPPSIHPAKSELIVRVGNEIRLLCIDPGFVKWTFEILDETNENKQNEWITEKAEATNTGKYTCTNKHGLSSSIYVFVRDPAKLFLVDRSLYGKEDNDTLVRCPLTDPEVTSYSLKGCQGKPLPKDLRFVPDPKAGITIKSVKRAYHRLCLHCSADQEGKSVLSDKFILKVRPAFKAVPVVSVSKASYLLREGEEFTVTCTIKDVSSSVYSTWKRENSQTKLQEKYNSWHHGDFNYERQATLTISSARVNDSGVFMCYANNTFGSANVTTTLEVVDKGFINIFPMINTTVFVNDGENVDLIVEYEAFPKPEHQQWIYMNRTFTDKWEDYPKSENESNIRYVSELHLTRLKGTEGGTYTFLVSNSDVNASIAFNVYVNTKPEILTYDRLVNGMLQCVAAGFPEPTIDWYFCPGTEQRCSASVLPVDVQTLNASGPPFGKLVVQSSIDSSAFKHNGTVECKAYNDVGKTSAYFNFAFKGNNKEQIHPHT

B1: huAb249 IgA2 (antibody, from another filing, V domains shown)
VH: EVQLVQSGAEVKKPGESLKISCKGSGYRFTTSWIGWVRQMPGKGLEWMGIIYPGDSDTRYSPSFQGQVTISADKSISTAYLQWSSLKASDTAMYYCARHGLGYNGYEGAFDIWGQGTLVTVSS
VL: DIQMTQSPSSLSASVGDRVTITCRASQGIGSALAWYQQKPGKAPKLLIYDASNLETGVPSRFSGSGSGTDFTLTISSLQPEDFATYYCQQLNGYPLTFGQGTRLEIK
A word on the Kd: it is the constant that tells how readily two partners part at equilibrium. In the case of B1, the EC50 of trogocytosis (ADCT; DILC18 membrane uptake by neutrophils from CD117-transfected 293 cells) in assay [1] amounted to 0.48 nM. Also, the Normalised uptake (B max) in %, ADCT in assay [1] was found to be 70.6%. For the same molecule, the dissociation constant Kd amounted to 0.1 nM in assay [2], 0.3 nM in assay [3] and 0.08 nM in assay [4].

B2: huAb249 IgG4 (antibody, from another filing, V domains shown)
VH: EVQLVQSGAEVKKPGESLKISCKGSGYRFTTSWIGWVRQMPGKGLEWMGIIYPGDSDTRYSPSFQGQVTISADKSISTAYLQWSSLKASDTAMYYCARHGLGYNGYEGAFDIWGQGTLVTVSS
VL: DIQMTQSPSSLSASVGDRVTITCRASQGIGSALAWYQQKPGKAPKLLIYDASNLETGVPSRFSGSGSGTDFTLTISSLQPEDFATYYCQQLNGYPLTFGQGTRLEIK
Consider B2, for which the results for the Kd in assay [2], in assay [3] and in assay [4] were 0.3 nM, 0.3 nM and 0.14 nM, respectively.
